Experimental data from PMC7913761.
Substitutions are numbered along the chain they refer to.

B1: AICE1 (dsDNA)
DNA 1: TAGTGCAGAAATGAGTCAGAGA
DNA 2: TCTCTGACTCATTTCTGCACTA
B2: EICE1 (dsDNA)
DNA 1: TAAAAGGAAGTGAAACCAAG
DNA 2: CTTGGTTTCACTTCCTTTTA
B3: AICE2 (dsDNA)
DNA 1: GAGGTTTCGGGATGACTAATACT
DNA 2: AGTATTAGTCATCCCGAAACCTC
B4: ISRE (SPR) (dsDNA)
DNA 1: CAACTGAAACCGAGAAAGC
DNA 2: GCTTTCTCGGTTTCAGTTG

Experiments:
Assay in all cases: SPR
[1] = target: T1, IRF4 DBD L116R (human, UniProt Q15306 21-130, L116R)
T1 sequence: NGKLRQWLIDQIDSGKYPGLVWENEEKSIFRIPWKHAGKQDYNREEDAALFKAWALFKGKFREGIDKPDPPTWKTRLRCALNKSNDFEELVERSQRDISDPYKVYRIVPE

[2] = target: T2, IRF4 DBD WT (human, UniProt Q15306 21-130)
T2 sequence: T1 sequence with R96L

[3] = target: T3, IRF4 DBD K59A (human, UniProt Q15306 21-130, K59A)
T3 sequence: T1 sequence with K39A, R96L

| Binder | Kd [1] [nM] | Kd [2] [nM] | Kd [3] [nM] |
| --- | --- | --- | --- |
| B1 | 2210 ± 30 | 2800 ± 480 |  |
| B2 | 60 ± 60 | 260 ± 70 |  |
| B3 |  | 1380 ± 510 |  |
| B4 | 60 ± 40 | 250 ± 150 | 660 ± 100 |
